Measured values reported in publication PMC7644641 (Nature structural & molecular biology, 2020).

Target: RagA:RagC^D181N GTPase heterodimer (UniProt Q7L523 1-313; Q9HB90 1-399, D181N)
Test: SEC

Sequence of RagA:RagC^D181N GTPase heterodimer (Q7L523 whole entry, chain 1 of 2): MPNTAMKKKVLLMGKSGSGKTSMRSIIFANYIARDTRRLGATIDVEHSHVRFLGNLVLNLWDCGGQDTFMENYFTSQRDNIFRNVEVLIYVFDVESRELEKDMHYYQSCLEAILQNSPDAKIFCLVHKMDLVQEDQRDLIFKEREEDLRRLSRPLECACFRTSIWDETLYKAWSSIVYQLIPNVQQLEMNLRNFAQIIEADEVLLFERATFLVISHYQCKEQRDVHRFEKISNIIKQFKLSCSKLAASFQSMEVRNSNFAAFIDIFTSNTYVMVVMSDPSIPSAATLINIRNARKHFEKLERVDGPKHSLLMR
Sequence of RagA:RagC^D181N GTPase heterodimer (Q9HB90 whole entry D181N, chain 2 of 2): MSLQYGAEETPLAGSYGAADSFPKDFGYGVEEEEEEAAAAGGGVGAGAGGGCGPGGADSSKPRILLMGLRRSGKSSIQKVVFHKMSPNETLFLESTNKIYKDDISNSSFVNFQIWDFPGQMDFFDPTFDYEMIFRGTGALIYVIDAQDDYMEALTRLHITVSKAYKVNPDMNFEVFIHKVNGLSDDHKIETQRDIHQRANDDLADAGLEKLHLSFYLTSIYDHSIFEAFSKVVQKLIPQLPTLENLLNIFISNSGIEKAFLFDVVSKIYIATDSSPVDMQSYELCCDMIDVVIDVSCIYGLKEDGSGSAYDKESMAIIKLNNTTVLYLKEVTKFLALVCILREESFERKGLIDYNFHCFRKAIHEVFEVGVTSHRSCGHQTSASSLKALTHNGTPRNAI

B1: SLC38A9 N-terminal cytoplasmic tail (residues 1–119) (domain or fragment, human, UniProt Q8NBW4 1-119, looked up)
chain: MANMNSDSRHLGTSEVDHERDPGPMNIQFEPSDLRSKRPFCIEPTNIVNVNHVIQRVSDHASAMNKRIHYYSRLTTPADKALIAPDHVVPAPEECYVYSPLGSAYKLQSYTEGYGKNTS
Does B1 bind?
Result: binds
